From PMC11969024, “Development of chemokine network inhibitors using combinatorial saturation mutagenesis” (Communications Biology, 2025)

B1: peptide HD2 (from tick evasin EVA4) / CXCL11 (biotinylated, synthetic) (parent)
chain 1: EEDDYTAYAPLTCYFT
chain 2: FPMFKRGRCLCIGPGVKAVKVADIEKASIMYPSNNCDKIEVIITLKENKGQRCLNPKSKQARLIIKKVERKNF
B2: peptide HD2 (from tick evasin EVA4) / CCL17 (biotinylated, synthetic) (parent)
chain 1: EEDDYTAYAPLTCYFT
chain 2: ARGTNVGRECCLEYFKGAIPLRKLKTWYQTSEDCSRDAIVFVTVQGRAICSDPNNKRVKNAVKYLQSLERS
B3: peptide HD2 (from tick evasin EVA4) / CCL1 (biotinylated, synthetic) (parent)
chain 1: EEDDYTAYAPLTCYFT
chain 2: KSMQVPFSRCCFSFAEQEIPLRAILCYRNTSSICSNEGLIFKLKRGKEACALDTVGWVQRHRKMLRHCPSKRK
B4: peptide HD2 (from tick evasin EVA4) / CCL18 (biotinylated, synthetic) (parent)
chain 1: EEDDYTAYAPLTCYFT
chain 2: AQVGTNKELCCLVYTSWQIPQKFIVDYSETSPQCPKPGVILLTKRGRQICADPNKKWVQKYISDLKLNA
B5: peptide HD2 (from tick evasin EVA4) / CCL4 (biotinylated, synthetic) (parent)
chain 1: EEDDYTAYAPLTCYFT
chain 2: APMGSDPPTACCFSYTARKLPRNFVVDYYETSSLCSQPAVVFQTKRSKQVCADPSESWVQEYVYDLELN

Variants of: B1
Details: with CXCL11 (biotinylated, synthetic); scale: log2
With chain 1 D3Q the enrichment was -2.12. chain 1 D3V was tested, and the enrichment was -6.48. With chain 1 L11N the enrichment was -5.58. For chain 1 L11Q, the enrichment was -3.39. chain 1 L11E was tested, and the enrichment was -5.3. For chain 1 L11G, the enrichment was -7.39. In the case of chain 1 Y5P, the enrichment is reported as -3.87. chain 1 Y5M showed an enrichment of -4.78. Work on chain 1 Y5V yielded an enrichment of -6.41. chain 1 Y5D was tested, and the enrichment was -4.19. chain 1 Y5G gave an enrichment of -4.25. chain 1 Y5C showed an enrichment of -6.3. For chain 1 Y5Q, the enrichment was -2.5. chain 1 Y5K gave an enrichment of -2.74. With chain 1 Y5S the enrichment was -6.24. Variant chain 1 Y5R has an enrichment of -4.19. Work on chain 1 Y5E yielded an enrichment of -0.621. In the case of chain 1 Y5T, the enrichment is reported as -4.8. With chain 1 Y5A the enrichment was -4.21. chain 1 A9C showed an enrichment of -7.23. For chain 1 A9K, the enrichment was -3.76. chain 1 A9D gave an enrichment of -5.37. chain 1 A7C gave an enrichment of -6.98. chain 1 Y8K showed an enrichment of -3.21. Variant chain 1 Y8R has an enrichment of -5.32. chain 1 Y8E was tested, and the enrichment was -3.32. With chain 1 Y8P the enrichment was -5. Variant chain 1 Y8C has an enrichment of -6.82. Variant chain 1 Y8Q has an enrichment of -3.5. For chain 1 E1C, the enrichment was -6.89. chain 1 E1K gave an enrichment of -3.21. chain 1 E1R gave an enrichment of -5.11. Work on chain 1 T16R yielded an enrichment of -6.32. chain 1 T16H gave an enrichment of -4.21.

Variants of: B2
Details: with CCL17 (biotinylated, synthetic); scale: log2
chain 1 A7C gave an enrichment of -9.94. With chain 1 D3C the enrichment was -10. With chain 1 C13K the enrichment was -9.23. Variant chain 1 C13G has an enrichment of -10.5. For chain 1 C13H, the enrichment was -8.75. Variant chain 1 C13W has an enrichment of -9.75. Work on chain 1 C13D yielded an enrichment of -9.26. Variant chain 1 C13A has an enrichment of -10.7. With chain 1 A9P the enrichment was -7.91. Work on chain 1 A9K yielded an enrichment of -6.73. With chain 1 A9C the enrichment was -10.2. For chain 1 A9D, the enrichment was -8.33. Work on chain 1 A9I yielded an enrichment of -10.1.

Variants of: B3
Details: with CCL1 (biotinylated, synthetic); scale: log2
With chain 1 C13H the enrichment was -7.88. In the case of chain 1 C13K, the enrichment is reported as -8.35. For chain 1 C13I, the enrichment was -7.4. chain 1 C13L showed an enrichment of -10.5. Work on chain 1 Y5G yielded an enrichment of -6.34. For chain 1 Y5A, the enrichment was -6.3. For chain 1 Y5P, the enrichment was -5.96. chain 1 Y5C showed an enrichment of -8.4. Variant chain 1 Y5M has an enrichment of -6.87. chain 1 Y5H was tested, and the enrichment was -6.55. For chain 1 Y5K, the enrichment was -4.83. chain 1 Y5E showed an enrichment of -2.71. chain 1 Y5V gave an enrichment of -8.5. chain 1 Y5S showed an enrichment of -8.33. chain 1 Y5Q was tested, and the enrichment was -4.59. chain 1 Y5D was tested, and the enrichment was -6.28. In the case of chain 1 Y5R, the enrichment is reported as -6.28. With chain 1 Y5T the enrichment was -6.9. chain 1 A9C gave an enrichment of -9.32. With chain 1 A9D the enrichment was -7.46. Variant chain 1 A9K has an enrichment of -5.86. For chain 1 A9H, the enrichment was -7.44. Variant chain 1 D3K has an enrichment of -4.59. Variant chain 1 D3R has an enrichment of -6.68. In the case of chain 1 D3C, the enrichment is reported as -9.13. With chain 1 L11P the enrichment was -7.33. For chain 1 L11E, the enrichment was -7.4. chain 1 L11N showed an enrichment of -7.68. With chain 1 E2K the enrichment was -4.38. Variant chain 1 E2C has an enrichment of -9.24. chain 1 D4Q was tested, and the enrichment was -5.71. In the case of chain 1 D4T, the enrichment is reported as -7.11. For chain 1 D4G, the enrichment was -5.45. In the case of chain 1 D4V, the enrichment is reported as -9.08. chain 1 D4C gave an enrichment of -8.47. In the case of chain 1 D4K, the enrichment is reported as -6.11. chain 1 D4R showed an enrichment of -6.32. chain 1 Y14G gave an enrichment of -9.73. Work on chain 1 Y14P yielded an enrichment of -8.08. chain 1 Y14K gave an enrichment of -7.4. For chain 1 Y14N, the enrichment was -6.13. In the case of chain 1 Y14E, the enrichment is reported as -7.99. Variant chain 1 Y14D has an enrichment of -6.76. chain 1 E1C gave an enrichment of -8.98. Variant chain 1 Y8Q has an enrichment of -5.59. Variant chain 1 Y8H has an enrichment of -6.8. Work on chain 1 Y8C yielded an enrichment of -8.91. In the case of chain 1 Y8T, the enrichment is reported as -7.71. chain 1 Y8R was tested, and the enrichment was -7.41. chain 1 Y8E was tested, and the enrichment was -5.41. chain 1 Y8S showed an enrichment of -8.97. Work on chain 1 Y8G yielded an enrichment of -7.94. chain 1 Y8K gave an enrichment of -5.3. Work on chain 1 Y8N yielded an enrichment of -7.36. For chain 1 P10R, the enrichment was -8.31. chain 1 P10N gave an enrichment of -7.25. In the case of chain 1 P10Y, the enrichment is reported as -7.79. chain 1 P10I showed an enrichment of -7.67. With chain 1 P10T the enrichment was -7.09. Variant chain 1 P10S has an enrichment of -8.42. Variant chain 1 P10H has an enrichment of -7.18. Variant chain 1 P10C has an enrichment of -8.95. chain 1 P10K showed an enrichment of -6.19. chain 1 P10F showed an enrichment of -8.64. With chain 1 A7C the enrichment was -9.07.

Variants of: B4
Details: with CCL18 (biotinylated, synthetic); scale: log2
With chain 1 Y14P the enrichment was -9.05. Variant chain 1 Y5K has an enrichment of -5.8. chain 1 D3C gave an enrichment of -10.1. For chain 1 E1C, the enrichment was -9.95. Work on chain 1 T16C yielded an enrichment of -7.88. In the case of chain 1 C13H, the enrichment is reported as -8.85. chain 1 C13G showed an enrichment of -10.6. chain 1 C13D showed an enrichment of -9.35. chain 1 C13S was tested, and the enrichment was -9.93. Variant chain 1 C13E has an enrichment of -10.1. For chain 1 C13K, the enrichment was -9.32. Work on chain 1 C13A yielded an enrichment of -10.8. In the case of chain 1 A9D, the enrichment is reported as -8.43. Variant chain 1 D4C has an enrichment of -9.44. Variant chain 1 T6C has an enrichment of -11.3. For chain 1 Y8E, the enrichment was -6.38. Variant chain 1 Y8K has an enrichment of -6.27. chain 1 Y8R was tested, and the enrichment was -8.38. chain 1 P10C gave an enrichment of -9.92. Variant chain 1 P10M has an enrichment of -8.7. chain 1 P10K showed an enrichment of -7.16. chain 1 P10H gave an enrichment of -8.15. chain 1 P10E gave an enrichment of -8.1. For chain 1 P10I, the enrichment was -8.64. For chain 1 P10T, the enrichment was -8.06. chain 1 P10S was tested, and the enrichment was -9.39. chain 1 P10R was tested, and the enrichment was -9.28. Work on chain 1 A7C yielded an enrichment of -10.

Variants of: B5
Details: with CCL4 (biotinylated, synthetic); scale: log2
chain 1 P10H was tested, and the enrichment was -7.52. chain 1 P10N showed an enrichment of -7.59. Work on chain 1 P10K yielded an enrichment of -6.53. chain 1 P10R was tested, and the enrichment was -8.65. With chain 1 P10M the enrichment was -8.07. In the case of chain 1 P10I, the enrichment is reported as -8.01. chain 1 A9D was tested, and the enrichment was -7.8. In the case of chain 1 A9C, the enrichment is reported as -9.66. chain 1 T6C showed an enrichment of -10.7. With chain 1 D3C the enrichment was -9.47. In the case of chain 1 D3K, the enrichment is reported as -4.93. Work on chain 1 E2C yielded an enrichment of -9.58. With chain 1 Y5A the enrichment was -6.64. For chain 1 Y5N, the enrichment was -7.28. Variant chain 1 Y5K has an enrichment of -5.17. chain 1 Y5Q gave an enrichment of -4.93. With chain 1 Y5G the enrichment was -6.68. In the case of chain 1 D4C, the enrichment is reported as -8.81. Work on chain 1 C13H yielded an enrichment of -8.22. Work on chain 1 C13R yielded an enrichment of -10.1. With chain 1 E1C the enrichment was -9.32. Work on chain 1 Y8K yielded an enrichment of -5.64. For chain 1 Y8M, the enrichment was -8.06. In the case of chain 1 Y8C, the enrichment is reported as -9.25. Variant chain 1 Y8R has an enrichment of -7.75. Work on chain 1 Y8Q yielded an enrichment of -5.93. For chain 1 Y8G, the enrichment was -8.28.
